Results taken from paper PMC7018876, “The novel llama-human chimeric antibody has potent effect in lowering LDL-c levels in hPCSK9 transgenic rats” (Clinical and Translational Medicine, 2020).

Experiments:
[1] = biological target: T1, human proprotein convertase subtilisin/kexin type 9, his tagged antigen (Homo sapiens, UniProt Q8NBP7); assay: SPR; hPCSK9-his on CM5 chip (~800 RU); 6 or 7-point two-fold dilutions of the VHH-based proteins injected; 25 °C; global fit with floating Rmax; Biacore T200; settings: both partners purified
T1 construct: human PCSK9; also called hPCSK9; PCSK9; source: bought: Sinobiological, China, Cat# 29698-H08H
T1 sequence (Q8NBP7 31-692): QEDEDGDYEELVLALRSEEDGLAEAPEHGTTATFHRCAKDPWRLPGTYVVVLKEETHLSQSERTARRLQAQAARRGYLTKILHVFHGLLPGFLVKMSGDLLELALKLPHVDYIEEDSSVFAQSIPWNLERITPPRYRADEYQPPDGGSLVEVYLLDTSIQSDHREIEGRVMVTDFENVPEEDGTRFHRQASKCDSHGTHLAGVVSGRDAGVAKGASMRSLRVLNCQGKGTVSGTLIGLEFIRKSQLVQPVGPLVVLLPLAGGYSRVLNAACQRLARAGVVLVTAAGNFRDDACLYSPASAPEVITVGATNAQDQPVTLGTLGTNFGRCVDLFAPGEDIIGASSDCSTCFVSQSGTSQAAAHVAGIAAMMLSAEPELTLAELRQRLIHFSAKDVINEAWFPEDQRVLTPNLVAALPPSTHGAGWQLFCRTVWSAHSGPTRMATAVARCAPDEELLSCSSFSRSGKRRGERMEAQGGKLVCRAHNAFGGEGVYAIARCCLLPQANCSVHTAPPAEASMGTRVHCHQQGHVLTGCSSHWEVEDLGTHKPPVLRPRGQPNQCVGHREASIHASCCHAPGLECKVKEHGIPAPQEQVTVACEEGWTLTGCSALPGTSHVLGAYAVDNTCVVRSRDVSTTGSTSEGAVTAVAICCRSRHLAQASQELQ

[2] = biological target: T1, human proprotein convertase …; assay: SPR; lysate kinetics screening; hPCSK9-his immobilised on CM5 chip (~18000 RU); supernatants of TES lysates of clones flowed over; 25 °C; binding 120 s, dissociation 140 s; binding value read at ~120 s, stability value at ~135 s; Biacore T200; settings: one partner purified

Binder	Kd [1] [nM]	koff [1] [s⁻¹]	kon [1] [M⁻¹ s⁻¹]	binding value (RU) [2] [RU]	stability value (RU) [2] [RU]
VHH-B11 (VHH, llama anti-hPCSK9 VHH from an immune phage library; 17 kDa on SDS-PAGE; also called monovalent VHH-B11; monovalency VHH-B11; source: E. coli, supernatant of TES lysate (screening); E. coli induced by IPTG, and Pichia pastoris X33, purified (Histrap FF column)) VHH: EVQLVESGGGSVQAGGSLRLSCTVSGYTYSSNCMGWFRQAPGKEHEGVASIYIGGGSTYYADSVKGRFTISQDNAKNTVYLQMNSLKPEDTAMYYCAVGCQGLVDFGYWDQGTQVTVSS	8.69	0.00235	271000	409	472
VHH-H12 (VHH, llama anti-hPCSK9 VHH from an immune phage library; source: E. coli, supernatant of TES lysate (screening); E. coli induced by IPTG, and Pichia pastoris X33, purified (Histrap FF column)) VHH: GGGLVQAGGSLRLSCAASRSTFSGYAMAWFRQAPGKEREFVACIEREIPGHPAWSGLTYYADSKKGRFTISRDNAKNTVYLQMNSLKPEDTAVYYCAAGLKYPAQKHYDYDYWGQGTQVTVPS	704	0.00524	7440	272	373
VHH-A6 (VHH, llama anti-hPCSK9 VHH from an immune phage library; source: E. coli, supernatant of TES lysate (screening); E. coli induced by IPTG, and Pichia pastoris X33, purified (Histrap FF column)) VHH: PGAAAGVGGGSVQAGGSLRLSCAASRYTDRTRCIAWFRQVPGKEREGVACLDRAGGQSAYADSAKGRFTVSQDNAGNTVYLQMDNLIPEDSAMYYCAAAGVGQWYTCLQKFIRDKRSFANWGQGTQVTVSS	29	0.000447	15400	166	239
VHH-G8 (VHH, llama anti-hPCSK9 VHH from an immune phage library; source: E. coli, supernatant of TES lysate (screening); E. coli induced by IPTG, and Pichia pastoris X33, purified (Histrap FF column)) VHH: DVQLVESGGGSVQAGGSLTLSCVVSGYRGQKICTGWFRQFPGMEREAVARILPRGPNTQYTDSVKGRFTISQDAAKNTVNLQMSSLKPKDTAMYYCAQGWGGASDWALQPRRYNYWGQGTQVTVSS	73	0.0114	162000	132	160
